Values of other authors as cited in PMC4610346.

Biological target: Jun leucine zipper (Homo sapiens) (UniProt P05412)
Sequence (P05412 277-311): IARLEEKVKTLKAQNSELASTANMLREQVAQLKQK

Sequence of Fos leucine zipper (P01100 162-196): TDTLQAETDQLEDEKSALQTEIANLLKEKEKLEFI

Substance: Fos leucine zipper (from UniProt P01100)
- Kd: 54 nM
